For experiment [1], the target named is T1, human serum albumin (human, UniProt P02768 25-609).
T1 construct: also called HSA; human albumin
Description: SPR (Biacore 3000), HSA amine-coupled on CM5 chip, pH 6.0, no VHH. (Surface plasmon resonance follows binding to a sensor surface in real time, without labels.)

The target in experiment [2] is T1, human serum albumin. Briefly: SPR (Biacore 3000), biotinylated albumin on CAP chip, pH 6.0.
Description: (§1) Biotinylated albumin was captured onto a CAP chip saturated with Biotin CAPture reagent containing deoxyribooligonucleotides (obtained from GE Healthcare). Concentrations of purified VHH domains were injected for 5 minutes at a flowrate of 50 μL/min. Three concentrations were assessed per VHH domain. Bound analyte was allowed to dissociate for 600 seconds. The chip surface was regenerated after each concentration by injecting 6 M guanidine HCl/0.25 M NaOH for 2 minutes at 10 μL/min. Kinetics were determined at pH 7.4 and pH 6.0 in HBS-EP buffer using a 1:1 Langmuir model (local Rₘₐₓ and constant RI) and double reference subtraction (subtraction of a buffer concentration cycle from the sample concentration cycle and subtraction of a parallel reference flow cell).
Experiment [3] has as its target T2, Cynomolgus monkey serum albumin (cynomolgus monkey, UniProt A2V9Z4 25-608).
T2 construct: also called CSA; cynomolgus albumin
The description is as above.
Description: as §1

For experiment [4], the target named is T1, human serum albumin. Briefly: SPR (Biacore 3000), biotinylated albumin on CAP chip, pH 7.4.
Description: as §1
The target of experiment [5] is T2, Cynomolgus monkey serum albumin. The experiment is described as above.
Description: as §1
The target of experiment [6] is T3, cynomolgus monkey (cyno) complement protein C5 (cynomolgus monkey, UniProt A0A2K5U1T1 19-1676).
T3 construct: also called cC5; cyno C5
Briefly: SPR (Biacore), pH 7.4.

Experiment [7] deals with T4, human complement protein C5 (human, UniProt P01031 19-1676).
T4 construct: Native C5 is a two-chain protein made from one precursor; also called hC5; human C5
Description: SPR (Biacore), pH 7.4.

The target in experiment [8] is T3, cynomolgus monkey (cyno) complement …. Briefly: SPR (Biacore), pH 6.0.
Experiment [9] has as its target T4, human complement protein C5. Briefly: SPR (Biacore), pH 6.0.
In experiment [10] the target is T1, human serum albumin. Briefly: BLI (Octet HTX), VHH-His on Penta-His sensors, 100 nM albumin.
Description: (§2) VHH sequences were first analyzed by SDS-PAGE and Coomassie staining to determine approximate concentration relative to a known standard. Supernatant concentrations were then normalized and subjected to biolayer interferometry on an Octet HTX (Pall/ForteBio). Penta-His sensors were exposed to kinetics buffer for 60 seconds to establish baseline measurements. The sensors were then loaded with VHH-His containing supernatants for 300 seconds before a second baseline was established in kinetics buffer over 120 seconds. Tips were then incubated with 100 nM HSA or CSA in kinetics buffer for 600 seconds and dissociation measured over an additional 600 seconds.
Experiment [11] has as its target T2, Cynomolgus monkey serum albumin. The description is as above.
Description: as §2
For experiment [12], the target named is T4, human complement protein C5. Briefly: sandwich: biotin-hC5 on CAP chip, test protein, then albumin; column 'Human C5 and Human Albumin'; protein has no anti-C5 domain.
Description: (§3) The 26 constructs listed in Table 13 were expressed and the fusion proteins were evaluated for binding to human C5 and albumin (Table 13-Octet binding), generation of aggregates, hydrophobicity (HIC HPLC) and glycosylation (electrospray mass spectrometry). For the octet analysis, biotinylated human C5 was captured on a CAP chip followed by an injection of a test bi-specific molecule. Various concentrations of albumin were subsequently injected. Kinetics were determined at pH 7.4 (Biacore 3000).
The target of experiment [13] is T5, Plasbumin® (UniProt P02768 25-609). Description: binding kinetics (method not named), pH 7.4.
For experiment [14], the target named is T2, Cynomolgus monkey serum albumin. Briefly: binding kinetics (method not named), pH 7.4.
Experiment [15] has as its target T5, Plasbumin®. Description: binding kinetics (method not named), pH 6.0.
The target of experiment [16] is T2, Cynomolgus monkey serum albumin. Briefly: binding kinetics (method not named), pH 6.0.
The target in experiment [17] is T3, cynomolgus monkey (cyno) complement …. Description: binding kinetics (method not named), pH 7.4.
Experiment [18] concerns the target T4, human complement protein C5. Description: binding kinetics (method not named), pH 7.4.
Experiment [19] concerns the target T3, cynomolgus monkey (cyno) complement …. Briefly: binding kinetics (method not named), pH 6.0.
The target in experiment [20] is T4, human complement protein C5. Briefly: binding kinetics (method not named), pH 6.0.
Experiment [21] concerns the target T1, human serum albumin. Briefly: sandwich: biotin-hC5 on CAP chip, test protein, then albumin; column 'Human C5 and Human Albumin'; protein has no anti-albumin domain.
Description: as §3

From patent publication US20250163138A1 (Alexion, published 2025) come the findings set out here.

As to FcRn (receptor), the response difference in experiment [1] is 30 RU.

B1: MSA21 VHH domain (VHH)
VHH: QVQLQESGGGLVQPGGSLRLSCEASGFTFSRFGMTWVRQAPGKGVEWVSGISSLGDSTLYADSVKGRFTISRDNAKNTLYLQMNSLKPEDTAVYYCTIGGSLNPGGQGTQVTVSS
notes: Published comparator (WO 2004/062551 A2); also called ADL021
With B1, the dissociation constant Kd in experiment [2] is 5.46 nM; in [3], 5.47 nM; in experiment [4] it was 3.49 nM; in experiment [5] it was 3.85 nM. The koff came to 0.00181 s⁻¹ in [2], 0.00153 s⁻¹ in experiment [3], 0.00393 s⁻¹ in experiment [4] and 0.00216 s⁻¹ in experiment [5]. Besides, the on-rate (kon) in [2] worked out at 330000 M⁻¹ s⁻¹; in [3] it was 280000 M⁻¹ s⁻¹; in [4] it was 1.13e+06 M⁻¹ s⁻¹; in experiment [5] it was 561000 M⁻¹ s⁻¹.

B2: CRL0484 (bispecific antibody)
chain: EVQLVESGGGLVQPGGSLRLSCAASGRTFSGILSPYAVGWFRQAPGKGLEFVSTITSGGSAIYTDSVKGRFTISRDNAKDSLYLQMNSLRAEDTAVYYCAVRTRRYGSNLGEVPQENEYGYWGQGTLVTVSSGGGGSGGGGSGGGGSEVQLVESGGGLVKPGGSLRLSCAASGRPVSNYAAAWFRQAPGKEREFVSAINWQKTATYADSVKGRFTISRDNAKNSLYLQMNSLRAEDTAVYYCAAVFRVVAPKTQYDYDYWGQGTLVTVSS
notes: anti-C5 VHH / (G4S)3 / anti-albumin VHH fusion, purified by Protein A; also called CRL0484 (C5/HSA)
On to B2, for which the Kd was 0.24 nM in experiment [6], 1.1 nM in experiment [7], 0.128 nM in [8] and 0.556 nM in experiment [9]. In addition, the dissociation rate constant (koff) in [6] stood at 2.2e-05 s⁻¹; in experiment [7], 7.69e-05 s⁻¹; in experiment [8], 6.17e-06 s⁻¹; in [9], 0.000236 s⁻¹. Further, the kon was 91500 M⁻¹ s⁻¹ in experiment [6], 70100 M⁻¹ s⁻¹ in experiment [7], 48200 M⁻¹ s⁻¹ in experiment [8] and 425000 M⁻¹ s⁻¹ in [9].

B3: HAS042 (VHH)
VHH: EVQLVESGGGLVKPGGSLRLSCAASGRPVSNYAAAWFRQAPGKEREFVSAINWQKTATYADSVKGRFTISRDNAKNSLYLQMNSLRAEDTAVYYCAAVFRVVAPKTQYDYDYWGQGTLVTVSS
notes: anti-albumin VHH-His
For B3, the binding result in experiment [10] and in [11] was “binds” each time.

B4: TPP-3212 (VHH)
VHH: EVQLVESGGGLVKPGGSLRLSCAASGRPVSNYAAAWFRQAPGKEREFVSAINWQKTATYADSVKGRFTISRDNAKNSLYLQMNSLRAEDTAVYYCAAVFRVVAPKTQYDYDYWGQGTLVTVSS
notes: Control: no anti-C5 domain (only anti-albumin)
B4: the binding result in experiment [12] was “no binding”.

B5: CRL0500 (bispecific antibody)
chain: EVQLVESGGGLVKPGGSLRLSCAASGRPVSNYAAAWFRQAPGKEREFVSAINWQKTATYADSVKGRFTISRDNAKNSLYLQMNSLRAEDTAVYYCAAVFRVVAPKTQYDYDYWGQGTLVTVSSGGGGSGGGGSGGGGSEVQLVESGGGLVQPGGSLRLSCAASGRAHSDYAMAWFRQAPGQEREFVAGIGWSGGDTLYADSVRGRFTNSRDNSKNTLYLQMNSLRAEDTAVYYCAARQGQYIYSSMRSDSYDYWGQGTLVTVSS
notes: anti-albumin VHH / (G4S)3 / anti-C5 VHH fusion, purified by Protein A; also called CRL0500 (HSA/C5)
Take B5: the Kd in [13] amounted to 0.936 nM; in experiment [14] it was 3.78 nM; in [15], 0.563 nM; in experiment [16], 2.12 nM; in [6], 0.42 nM; in experiment [7] it was 0.233 nM. Moreover, the Kd in experiment [17] was determined as 0.219 nM; in experiment [18] it was 0.0512 nM; in experiment [8] it was 0.641 nM; in [9], 0.189 nM; in [19], 0.744 nM; in experiment [20], 0.138 nM. For the same molecule, the koff in experiment [13] was found to be 0.00346 s⁻¹; in experiment [14], 0.0126 s⁻¹; in experiment [15] it was 0.002 s⁻¹; in experiment [16], 0.00693 s⁻¹; in experiment [6], 0.000848 s⁻¹; in [7], 0.000672 s⁻¹. Further, the koff in [17] amounted to 0.000818 s⁻¹; in [18] it was 0.000491 s⁻¹; in experiment [8], 0.0025 s⁻¹; in experiment [9] it was 0.00152 s⁻¹; in experiment [19], 0.0041 s⁻¹; in experiment [20], 0.00104 s⁻¹. Besides, the kon came to 3.7e+06 M⁻¹ s⁻¹ in experiment [13]; 3.32e+06 M⁻¹ s⁻¹ in [14]; 3.55e+06 M⁻¹ s⁻¹ in experiment [15]; 3.27e+06 M⁻¹ s⁻¹ in [16]; 2e+06 M⁻¹ s⁻¹ in experiment [6]; 2.88e+06 M⁻¹ s⁻¹ in [7]. Further, the kon in experiment [17] was 3.74e+06 M⁻¹ s⁻¹; in experiment [18] it was 9.6e+06 M⁻¹ s⁻¹; in experiment [8], 3.91e+06 M⁻¹ s⁻¹; in [9] it was 8.02e+06 M⁻¹ s⁻¹; in [19] it was 5.51e+06 M⁻¹ s⁻¹; in experiment [20], 7.56e+06 M⁻¹ s⁻¹.

B6: CRL0952 (bispecific antibody)
chain: EVQLVESGGGLVKPGGSLRLSCAASGRPVSNYAAAWFRQAPGKEREFVSAINWQKTATYADSVKGRFTISRDNAKNSLYLQMNSLRAEDTAVYYCAAVFRVVAPKTQYDYDYWGQGTLVTVSSGGGGAGGGGAGGGGSEVQLVESGGGLVQPGGSLRLSCAASGRAHSDYAMAWFRQAPGQEREFVAGIGWSGGDTLYADSVRGRFTNSRDNSKNTLYLQMNSLRAEDTAVYYCAARQGQYIYSSMRSDSYDYWGQGTLVTVSS
Regarding B6, the dissociation constant Kd was 0.901 nM in [13]; 5.19 nM in experiment [14]; 0.649 nM in experiment [15]; 2.49 nM in experiment [16]; 0.223 nM in experiment [17]; 0.0536 nM in experiment [18]. Moreover, the Kd in [19] was 0.72 nM; in experiment [20], 0.155 nM. Besides, the koff in experiment [13] stood at 0.00359 s⁻¹; in experiment [14], 0.0152 s⁻¹; in experiment [15], 0.0021 s⁻¹; in experiment [16] it was 0.00755 s⁻¹; in [17], 0.000786 s⁻¹; in experiment [18] it was 0.000539 s⁻¹. Moreover, the koff came to 0.00399 s⁻¹ in experiment [19] and 0.000907 s⁻¹ in experiment [20]. For the same molecule, the association rate constant (kon) in experiment [13] came out at 3.98e+06 M⁻¹ s⁻¹; in experiment [14] it was 2.93e+06 M⁻¹ s⁻¹; in experiment [15], 3.23e+06 M⁻¹ s⁻¹; in [16], 3.03e+06 M⁻¹ s⁻¹; in experiment [17], 3.53e+06 M⁻¹ s⁻¹; in experiment [18], 1.01e+07 M⁻¹ s⁻¹. The on-rate constant (kon) in experiment [19] stood at 5.55e+06 M⁻¹ s⁻¹; in [20] it was 5.84e+06 M⁻¹ s⁻¹.

B7: HAS041 (VHH)
VHH: QVQLIESGGGLVQAGGSLGLSCAASGRPVSNYAAAWFRQAPGKEREFVAAINWNKTATYADSVKGRFTISRDNAKSTVALQMNSLKPEDTAVYYCAAVFRVVAPKTQYDYDYWGQGTQVTVSS
notes: anti-albumin VHH-His; also called HAS41
In the case of B7, the dissociation constant Kd in experiment [2] came out at 1.04 nM; in experiment [3], 2.37 nM; in experiment [4], 0.461 nM; in experiment [5] it was 1.15 nM. Further, the koff is 0.000387 s⁻¹ in experiment [2], 0.000739 s⁻¹ in [3], 0.000566 s⁻¹ in experiment [4] and 0.00123 s⁻¹ in experiment [5]. Besides, the on-rate (kon) in experiment [2] is 373000 M⁻¹ s⁻¹; in experiment [3] it was 312000 M⁻¹ s⁻¹; in [4] it was 1.23e+06 M⁻¹ s⁻¹; in experiment [5], 1.07e+06 M⁻¹ s⁻¹.

B8: TPP-3211 (VHH)
VHH: EVQLVESGGGLVQPGGSLRLSCAASGRAHSDYAMAWFRQAPGQEREFVAGIGWSGGDTLYADSVRGRFTNSRDNSKNTLYLQMNSLRAEDTAVYYCAARQGQYIYSSMRSDSYDYWGQGTLVTVSS
notes: Control: no anti-albumin domain (only anti-C5)
With B8, the binding result in experiment [21] is recorded as “no binding”.

B9: CRL0483 (bispecific antibody)
chain: EVQLVESGGGLVQPGGSLRLSCAASGRTFSGILSPYAVGWFRQAPGKGLEFVSTITSGGSAIYTDSVKGRFTISRDNAKDSLYLQMNSLRAEDTAVYYCAVRTRRYGSNLGEVPQENEYGYWGQGTLVTVSSGGGGSGGGGSGGGGSEVQLLESGGGLVQPGGSLRLSCAASGFTFRSFGMSWVRQAPGKGPEWVSSISGSGSDTLYADSVKGRFTISRDNSKNTLYLQMNSLRPEDTAVYYCTIGGSLSRSSQGTLVTVSS
notes: anti-C5 VHH / (G4S)3 / anti-albumin VHH fusion, purified by Protein A; also called CRL0483 (C5/HSA)
On to B9, for which the Kd in [6] amounted to 0.24 nM; in experiment [7] it was 1.07 nM; in [8] it was 1.25 nM; in experiment [9], 5.27 nM. Moreover, the off-rate (koff) in experiment [6] was 2.2e-05 s⁻¹; in experiment [7], 0.000242 s⁻¹; in experiment [8] it was 4.62e-05 s⁻¹; in experiment [9] it was 0.000211 s⁻¹. For the same molecule, the on-rate constant (kon) in experiment [6] was found to be 91500 M⁻¹ s⁻¹; in experiment [7], 225000 M⁻¹ s⁻¹; in [8], 37100 M⁻¹ s⁻¹; in experiment [9], 40000 M⁻¹ s⁻¹.

What is called Kd is the free concentration of one partner at which half of the binding sites on the other are occupied at equilibrium, for simple one-to-one binding. The koff is a measure of how fast the partners let go of each other. What is called kon is a measure of how fast the partners come together.
